From patent US20240117030A1 (Pfizer, published 2024)
One block for each binder: values may come before it.

Key:
Test in all cases: cell-based or functional assay
[1] = target: T1, human IL-33 mm2 Cys (human, UniProt O95760 112-270, limits assumed)
T1 sequence (looked up): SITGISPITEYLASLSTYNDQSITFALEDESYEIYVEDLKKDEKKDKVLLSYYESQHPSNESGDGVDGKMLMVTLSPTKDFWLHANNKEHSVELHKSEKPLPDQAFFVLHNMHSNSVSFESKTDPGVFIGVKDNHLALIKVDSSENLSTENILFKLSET

[2] = target: T2, recombinant human IL-33 (R&D Systems 3625-IL), reduced with DTT (human, UniProt O95760 112-270, limits assumed)
T2 sequence (looked up): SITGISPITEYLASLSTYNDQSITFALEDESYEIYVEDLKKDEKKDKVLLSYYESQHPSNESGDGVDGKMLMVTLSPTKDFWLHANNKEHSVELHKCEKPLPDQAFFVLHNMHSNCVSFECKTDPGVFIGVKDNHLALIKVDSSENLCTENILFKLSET

[3] = target: recombinant human IL-13 (human, UniProt P35225 35-146)
[4] = target: recombinant human TSLP (glycosylated long form) (human, UniProt Q969D9 29-159)
[5] = target: T3, recombinant human IL-4 (human, UniProt P05112 25-153)
T3 sequence (looked up): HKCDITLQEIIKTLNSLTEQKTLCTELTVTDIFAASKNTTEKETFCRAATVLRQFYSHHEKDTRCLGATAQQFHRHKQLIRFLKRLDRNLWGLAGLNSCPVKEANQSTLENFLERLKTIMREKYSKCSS

[6] = target: recombinant human IL-13 (human, UniProt P35225 35-146); remark: listed apart in the source
[7] = target: T4, recombinant human IL-4 (human, UniProt P05112 25-153); remark: listed apart in the source
T4 sequence (looked up): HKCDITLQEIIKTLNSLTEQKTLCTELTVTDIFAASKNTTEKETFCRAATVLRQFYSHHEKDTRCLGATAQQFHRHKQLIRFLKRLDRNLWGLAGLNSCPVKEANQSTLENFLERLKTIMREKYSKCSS

IC50 [pM] versus human IL-33 mm2 Cys (HEK-Blue SEAP) [1]: 237 pM
IC50 [pM] versus human reduced IL-33 (R&D), Experiment 1 (HEK-Blue SEAP) [2]: ~677 pM
IC50 [pM] versus human reduced IL-33 (R&D), Experiment 2 (HEK-Blue SEAP) [2]: ~1240 pM
B1: IL33-0216 (antibody, human IgG1, kappa, V domains shown)
VH: EVQLVESGGGLVQPGGSLRLSCAASGFTFSSYWMYWVRQAPGKGLEWVAAITPNAGEDYYPESVKGRFTISRDNAKNSLYLQMNSLRAEDTAVYYCARGHYYYTSYSLGYWGQGTLVTVSS
VL: DIQMTQSPSSLSASVGDRVTITCKASQNIDKHLDWYQQKPGKAPKLLIYFTNNLQTGVPSRFSGSGSGTDFTLTISSLQPEDFATYYCFQYNQGWTFGGGTKVEIKR

a-hIL-13 bioassay (IC50, pM) [3]: 47 pM
a-TSLP TARC bioassay (IC50; pM) [4]: 12.6 pM
a-hIL-4 bioassay IC50, pM) [5]: 7.15 pM
B2: IL413TSLP-0001 (other)
heavy: EVTLRESGPALVKPTQTLTLTCTFSGFSLSNFGEGLSWIRQPPGKGLEWLAHIYWDDDKRYNPSLKSRLTISKDTSRNQVVLTMTNMDPVDTATYYCARRETVFYWYFDVWGQGTTVTVSSASTKGPSVFPEAPSSKSTSGGTAALGCLVKDYFPEPVTVSWNSGALTSGVHTFPAVLQSSGLYSLGSVVTVPSSSLGTQTYICNVNHKPSNTKVDKKVEPKSCDKTHTCPPCPAPEAAGAPSVFLFPPKPKDTLMISRTPEVTCVVVDVSHEDPEVKFNWYVDGVEVHNAKTKPREEQYNSTYRVVSVLTVLHQDWLNGKEYKCKVSNKALPAPIEKTISKAKGQPREPQVYTLPPCREEMTKNQVSLSCAVKGFYPSDIAVEWESNGQPENNYKTTPPVLDSDGSFFLVSKLTVDKSRWQQGNVFSCSVMHEALHNHYTQKSLSLSPGK
chain 1: QMQLVESGGGVVQPGRSLRLSCAASGFTFRTYGMHWVRQAPGKGLEWVAVIWYDGSNKHYADSVKGRFTITRDNSKNTLNLQMNSLRAEDTAVYYCARAPQWELVHEAFDIWGQGTMVTVSSGQPKAAPSVTLFPPSSEELQANKATLVCLISDFYPGAVTVAWKADSSPVKAGVETTTPSKQSNNKYAASSYLSLTPEQWKSHRSYSCQVTHEGSTVEKTVAPTECSGGGGSEVQLVESGGGLVQPGGSLRLSCAASGFTFSSYAMSWVRQAPGKGLEWVASISSGDTTYYPDSVKGRFTISRDNAKNSLYLQMNSLRAEDTAVYYCARNEGYYFGLTLWGQGTLVTVSSASTKGPSVFPKAPSSKSTSGGTAALGCLVKDYFPEPVTVSWNSGALTSGVHTFPAVLQSSGLYSLSSSVTVPSSSLGTQTYICNVNHKPSNTKVDKKVEPKSCDKTHTCPPCPAPEAAGAPSVFLFPPKPKDTLMISRTPEVTCVVVDVSHEDPEVKFNWYVDGVEVHNAKTKPREEQYNSTYRVVSVLTVLHQDWLNGKEYKCKVSNKALPAPIEKTISKAKGQPREPQVCTLPPSREEMTKNQVSLWCLVKGFYPSDIAVEWESNGQPENNYKTTPPVLDSDGSFFLYSKLTVDKSRWQQGNVFSCSVMHEALHNHYTQKSLSLSPGK
light 1: DIQMTQSPSSLSASVGDRVTITCKASQSVDEDGDSYMNWYQQKPGKAPKLLIYAASNLESGVPSRFSGSGSGTDFTLTISSLQPEDFATYYCQQSNEDPPTFGGGTKVEIKRTVAAPSVFIFPPSDEQLKSGTASVSCLLNNFYPREAKVQWKVDNALQSGNSQESVTEQDSKDSTYSLKSTLTLSKADYEKHKVYACEVTHQGLSSPVTKSFNRGEC
light 2: DIQMTQSPSSLSASVGDRVTITCKASESVDHFGWSLVHWYQQKPGKAPKLLIYRASNLESGVPSRFSGSGSGTDFTLTISSLQPEDFATYYCQQSNEDPWTFGGGTKVEIKRTVAAPSVFIFPPSDEQLKSGTASVSCLLNNFYPREAKVQWKVDNALQSGNSQESVTEQDSKDSTYSLDSTLTLSKADYEKHKVYACEVTHQGLSSPVTKSFNRGEC
chain 2: SYVLTQPPSVSVAPGQTARITCGGNNLGSKSVHWYQQKPGQAPVLVVYDDSDRPSWIPERFSGSNSGNTATLTISRGEAGDEADYYCQVWDSSSDHVVFGGGTKLTVLASTKGPSVFPLAPSSKSTSGGTAALGCLVKDYFPEPVTVSWNSGALTSGVHTFPAVLQSSGLYSLSSVVTVPSSSLGTQTYICNVNHKPSNTKVDKKVEPKSC

IC50 (median), IL-13 induced CD23 expression on human monocytes [6]: 0.0129 nM
IC50 (median), IL-4 induced CD23 expression on human monocytes [7]: 0.0128 nM
B3: IL413TSLP-1028 (other)
heavy: not shown
chain 1: DIQMTQSPSSLSASVGDRVTITCKASESVDHFGWSLVHWYQQKPGKAPKLLIYRASNLESGVPSRFSGSGSGTDFTLTISSLQPEDFATYYCQQSNEDPWTFGGGTKVEIKRTVAAPSVFIFPPSDEQLKSGTASVVCLLNNFYPREAKVQWKVDNALQSGNSQESVTEQDSKDSTYSLSSTLTLSKADYEKHKVYACEVTHQGLSSPVTKSFNRGECGGGGSEVTLRESGPALVKPTQTLTLTCTFSGFSLSNFGEGLSWIRQPPGKGLEWLAHIYWDDDKRYNPSLKSRLTISKDTSRNQVVLTMTNMDPVDTATYYCARRETVFYWYFDVWGQGTTVTVSSASTKGPSVFPLAPSSKSTSGGTAALGCLVKDYFPEPVTVSWNSGALTSGVHTFPAVLQSSGLYSLSSVVTVPSSSLGTQTYICNVNHKPSNTKVDKKVEPKSCEKTHTCPPCPAPEAAGAPSVFLFPPKPKDTLMISRTPEVTCVVVDVSHEDPEVKFNWYVDGVEVHNAKTKPREEQYNSTYRVVSVLTVLHQDWLNGKEYKCKVSNKALPAPIEKTISKAKGQPREPQVYTLPPSREEMTKNQVSLTCEVKGFYPSDIAVEWESNGQPENNYKTTPPVLDSDGSFFLYSKLTVDKSRWQQGNVFSCSVLHEALHSHYTQKSLSLSPGK
light 1: SYVLTQPPSVSVAPGQTARITCGGNNLGSKSVHWYQQKPGQAPVLVVYDDSDRPSWIPERFSGSNSGNTATLTISRGEAGDEADYYCQVWDSSSKHVVFGGGTKLTVLGQPKAAPSVTLFPPSSEELQANKATLVCLISDFYPGAVTVAWKADSSPVKAGVETTTPSKQSNNKYAASSYLSLTPEQWKSHRSYSCQVTHEGSTVEKTVAPTECS
light 2: DIQMTQSPSSLSASVGDRVTITCRASQSVDEEGDSYMNWYQQKPGKAPKLLIYAASNLESGVPSRFSGSGSGTDFTLTISSLQPEDFATYYCQQSNKDPPTFGGGTKVEIKRTVAAPSVFIFPPSDEQLKSGTASVVCLLNNFYPREAKVQWKVDNALQSGNSQESVTEQDSKDSTYSLSSTLTLSKADYEKHKVYACEVTHQGLSSPVTKSFNRGEC
chain 2: EVQLVESGGGLVQPGGSLRLSCAASGFTFSSYAMSWVRQAPGKGLEWVASISSGDTTYYPDSVKGRFTISRDNAKNSLYLQMNSLRAEDTAVYYCARNEGYYFGLTLWGQGTLVTVSSASTKGPSVFPLAPSSKSTSGGTAALGCLVKDYFPEPVTVSWNSGALTSGVHTFPAVLQSSGLYSLSSVVTVPSSSLGTQTYICNVNHKPSNTKVDKKVEPKSC

IC50 (median), IL-13 induced CD23 expression on human monocytes [6]: 0.0131 nM
IC50 (median), IL-4 induced CD23 expression on human monocytes [7]: 0.0105 nM
B4: IL413TSLP-1037 (other)
heavy: not shown
chain 1: DIQMTQSPSSLSASVGDRVTITCKASESVDHFGWSLVHWYQQKPGKAPKLLIYRASNLESGVPSRFSGSGSGTDFTLTISSLQPEDFATYYCQQSNEDPWTFGGGTKVEIKRTVAAPSVFIFPPSDEQLKSGTASVVCLLNNFYPREAKVQWKVDNALQSGNSQESVTEQDSKDSTYSLSSTLTLSKADYEKHKVYACEVTHQGLSSPVTKSFNRGECGGGGSEVTLRESGPALVKPTQTLTLTCTFSGFSLSNFGEGLSWIRQPPGKGLEWLAHIYWDDDKRYNPSLKSRLTISKDTSRNQVVLTMTNMDPVDTATYYCARRETVFYWYFDVWGQGTTVTVSSASTKGPSVFPLAPSSKSTSGGTAALGCLVKDYFPEPVTVSWNSGALTSGVHTFPAVLQSSGLYSLSSVVTVPSSSLGTQTYICNVNHKPSNTKVDKKVEPKSCEKTHTCPPCPAPEAAGAPSVFLFPPKPKDTLMISRTPEVTCVVVDVSHEDPEVKFNWYVDGVEVHNAKTKPREEQYNSTYRVVSVLTVLHQDWLNGKEYKCKVSNKALPAPIEKTISKAKGQPREPQVYTLPPSREEMTKNQVSLTCEVKGFYPSDIAVEWESNGQPENNYKTTPPVLDSDGSFFLYSKLTVDKSRWQQGNVFSCSVLHEALHSHYTQKSLSLSPGK
light 1: SYVLTQPPSVSVAPGQTARITCGGNNLGSKSVHWYQQKPGQAPVLVVYDDKDRPSWIPERFSGSNSGNTATLTISRGEAGDEADYYCQVWDKSSDHVVFGGGTKLTVLGQPKAAPSVTLFPPSSEELQANKATLVCLISDFYPGAVTVAWKADSSPVKAGVETTTPSKQSNNKYAASSYLSLTPEQWKSHRSYSCQVTHEGSTVEKTVAPTECS
light 2: DIQMTQSPSSLSASVGDRVTITCRASQSVDEEGDSYMNWYQQKPGKAPKLLIYAASNLESGVPSRFSGSGSGTDFTLTISSLQPEDFATYYCQQSNKDPPTFGGGTKVEIKRTVAAPSVFIFPPSDEQLKSGTASVVCLLNNFYPREAKVQWKVDNALQSGNSQESVTEQDSKDSTYSLSSTLTLSKADYEKHKVYACEVTHQGLSSPVTKSFNRGEC
chain 2: EVQLVESGGGLVQPGGSLRLSCAASGFTFSSYAMSWVRQAPGKGLEWVASISSGDTTYYPDSVKGRFTISRDNAKNSLYLQMNSLRAEDTAVYYCARNEGYYFGLTLWGQGTLVTVSSASTKGPSVFPLAPSSKSTSGGTAALGCLVKDYFPEPVTVSWNSGALTSGVHTFPAVLQSSGLYSLSSVVTVPSSSLGTQTYICNVNHKPSNTKVDKKVEPKSC
